Reference: publication PMC4824444

Key:
[1] = biological target: kappa-opioid peptide (KOP) receptor (human (endogenous in THP-1)) (UniProt P41145)
[2] = biological target: kappa-opioid peptide (KOP) receptor (human (endogenous in THP-1)) (UniProt P41145); remark: listed apart in the source

UniProt P41145, sequence (P41145 whole entry): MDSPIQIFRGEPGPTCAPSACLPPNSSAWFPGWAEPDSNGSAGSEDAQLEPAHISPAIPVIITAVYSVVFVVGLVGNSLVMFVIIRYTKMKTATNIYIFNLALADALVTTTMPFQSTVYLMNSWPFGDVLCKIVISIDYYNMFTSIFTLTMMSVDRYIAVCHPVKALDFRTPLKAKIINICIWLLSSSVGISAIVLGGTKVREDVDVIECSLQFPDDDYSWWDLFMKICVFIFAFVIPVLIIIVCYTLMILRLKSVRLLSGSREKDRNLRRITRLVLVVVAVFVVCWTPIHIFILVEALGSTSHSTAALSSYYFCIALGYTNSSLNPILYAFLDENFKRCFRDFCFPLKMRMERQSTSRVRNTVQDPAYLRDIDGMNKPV

inhibition of LPS-stimulated NF-κB/p65 nuclear translocation in differentiated THP-1 cells by DYN 1-7 at 10 nM, relative to the LPS control group; reversed by the KOP receptor antagonist ML-190 (1 μM) [1]: 44% | reduction of LPS-stimulated IL-1β and TNF-α release from differentiated THP-1 cells by DYN 1-7 (0.1 μM, 1 nM, 10 pM; 24 hr; AlphaLISA); reversed by ML-190 at 10 pM (IL-1β, TNF-α) and at 1 nM (TNF-α) [2]: 15 to 30%
Substance: Dynorphin 1-7 (peptide)
